Measurements from patent US20140357838A1, “N-Terminally Modified Insulin Derivatives” (Novo Nordisk A/S, priority 2011, published 2014).
Starred links: 1 amine or outer side, 2 acyl side, 3 side chain; linkers in the order of their positions; H or OH if unused. Positions of bridges follow the written chain, without caps; N, C: chain ends. Groups on a side chain read outwards from the residue. Chains are numbered I, II in the order given. No end group written: not given here. *: point of attachment. Phe(Nα-CONH2) = NC(=O)N[C@@H](Cc1ccccc1)C(=O)*; C20 diacid = O=C(O)CCCCCCCCCCCCCCCCCCC(=O)*; C18 diacid = O=C(O)CCCCCCCCCCCCCCCCC(=O)*; NMe2Phe = CN(C)[C@@H](Cc1ccccc1)C(=O)*; γGlu = O=C(O)[C@H](CCC(=O)[*:2])N[*:1]; Hydantoyl = NC(=O)NCC(=O)*; AEEA = NCCOCCOCC(=O)O; Me2Gly = CN(C)CC(=O)*

How the values were obtained:
human insulin receptor [1] = target: T1, human insulin receptor (Homo sapiens, UniProt P06213); experiment: Insulin receptor affinity, SPA assay with […] HSA in binding buffer; conditions: relative to the affinity of human insulin
T1 sequence (P06213 28-746 isoform P06213-2 limits assumed): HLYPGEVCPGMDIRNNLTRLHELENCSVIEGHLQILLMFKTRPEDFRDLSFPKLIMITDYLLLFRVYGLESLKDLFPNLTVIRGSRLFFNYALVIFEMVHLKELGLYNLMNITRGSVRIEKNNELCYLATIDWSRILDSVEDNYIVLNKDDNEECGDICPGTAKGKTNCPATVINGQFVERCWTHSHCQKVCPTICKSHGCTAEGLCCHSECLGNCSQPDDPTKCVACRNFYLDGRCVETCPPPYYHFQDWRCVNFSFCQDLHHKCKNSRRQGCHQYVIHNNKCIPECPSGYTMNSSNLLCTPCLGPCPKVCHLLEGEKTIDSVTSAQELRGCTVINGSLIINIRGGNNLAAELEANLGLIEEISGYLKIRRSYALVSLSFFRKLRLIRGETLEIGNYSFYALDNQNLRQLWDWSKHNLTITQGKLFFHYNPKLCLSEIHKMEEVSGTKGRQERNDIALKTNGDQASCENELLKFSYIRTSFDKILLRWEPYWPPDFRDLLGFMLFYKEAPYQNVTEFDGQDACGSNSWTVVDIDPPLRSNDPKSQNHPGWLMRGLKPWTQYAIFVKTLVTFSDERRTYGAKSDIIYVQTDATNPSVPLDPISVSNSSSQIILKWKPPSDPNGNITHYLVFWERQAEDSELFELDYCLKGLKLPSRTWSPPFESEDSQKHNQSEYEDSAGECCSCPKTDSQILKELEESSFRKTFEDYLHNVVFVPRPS
T1 sequence (P06213 763-1382 partner limits assumed): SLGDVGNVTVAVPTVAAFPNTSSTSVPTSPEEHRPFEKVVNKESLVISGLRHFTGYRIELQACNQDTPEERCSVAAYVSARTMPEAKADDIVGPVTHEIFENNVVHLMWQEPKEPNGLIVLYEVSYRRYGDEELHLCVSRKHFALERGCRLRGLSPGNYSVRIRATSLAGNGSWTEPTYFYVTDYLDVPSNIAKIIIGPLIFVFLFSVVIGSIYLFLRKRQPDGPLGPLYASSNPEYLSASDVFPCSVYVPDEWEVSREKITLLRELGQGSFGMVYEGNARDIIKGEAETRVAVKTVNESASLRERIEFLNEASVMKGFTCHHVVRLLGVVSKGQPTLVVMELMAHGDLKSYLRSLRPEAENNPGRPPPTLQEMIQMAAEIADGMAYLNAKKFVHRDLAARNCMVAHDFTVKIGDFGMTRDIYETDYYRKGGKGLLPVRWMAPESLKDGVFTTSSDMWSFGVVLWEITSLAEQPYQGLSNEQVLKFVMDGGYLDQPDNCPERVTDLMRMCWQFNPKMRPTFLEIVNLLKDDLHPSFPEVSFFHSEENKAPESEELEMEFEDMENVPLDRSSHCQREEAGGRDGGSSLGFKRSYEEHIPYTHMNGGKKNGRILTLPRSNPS
Procedure: (§1) SPA-PVT antibody-binding beads, anti-mouse reagent (Amersham Bio-sciences, Cat No. PRNQ0017) are mixed with 25 ml of binding buffer (100 mM HEPES pH 7.8; 100 mM sodium chloride, 10 mM MgSO4, 0.025% Tween-20). […] A total of 100 μl reagent mix is then added to each well in the Packard Optiplate and a dilution series of the N-terminally modified insulin is made in the Optiplate from appropriate samples. The samples are then incubated for 16 hours while gently shaken. The phases are the then separated by centrifugation for 1 min and the plates counted in a Topcounter.

human insulin receptor [2] = target: T1, human insulin receptor; experiment: Insulin receptor affinity, SPA antibody capture assay (0% HSA); assay type: binding; conditions: relative to the affinity of human insulin
Procedure: as §1

duodenum lumen enzymes = experiment: Degradation of insulin analogs using duodenum lumen enzymes; assay type: in vitro ADME; conditions: rat duodenum lumen enzymes, 100 mM Hepes pH 7.4, 37° C.; degradation half time divided by that of reference insulin
Procedure: Degradation of insulin analogs using duodenum lumen enzymes (prepared by filtration of duodenum lumen content) from SPD rats. The assay is performed by a robot in a 96 well plate (2 ml) with 16 wells available for insulin analogs and standards. Insulin analogs ˜15 μM are incubated with duodenum enzymes in 100 mM Hepes, pH=7.4 at 37° C., samples are taken after 1, 15, 30, 60, 120 and 240 min and reaction quenched by addition of TFA. Intact insulin analogs at each point are determined by RP-HPLC. […] The amount of enzymes added for the degradation is such that the half time for degradation of the reference insulin is between 60 min and 180 min.

[3] = Thioflavin T (ThT) fibrillation assay; assay type: physicochemical; conditions: same experiment as prior art derivatives, 37° C., 960 rpm, pH 7.4, mean ± SD
Excerpt: This has traditionally been measured by visual inspection of the sample. However, that kind of measurement is very subjective and depending on the observer. Therefore the application of a small molecule indicator probe is much preferred. […] The time course for fibril formation can be described by a sigmoidal curve with the following expression (Nielsen at al. Biochemistry 40, 6036-6046, 2001):
Here, F is the ThT fluorescence at the time t. The constant t0 is the time needed to reach 50% of maximum fluorescence. The two important parameters describing fibril formation are the lag-time calculated by t0-2[…] and the apparent rate constant kapp=1/{tilde over (□)}.
Samples were prepared freshly before each assay. Each analog was dissolved in 2 mM sodium phosphate, pH=7.4. Thioflavin T was added to the samples from a stock solution in water to a final concentration of 1 μM. Sample aliquots of 200 μl were placed in a 96 well microtiter plate (Packard Optiplate™-96, white polystyrene). Usually four replica of each sample (corresponding to one test condition) were placed in one column of wells. The plate was sealed with Scotch Pad (Qiagen).
Incubation at given temperature, shaking and measurements of the ThT fluorescence emission were done in either a Fluoroskan Ascent FL or Varioskan fluorescence plate reader (thermo Labsystems). The temperature was adjusted to 37° C. […] Fluorescence measurements were done using excitation through a 444 nm filter and measurement of emission through a 485 nm filter.
Each run was initiated by incubating the plate at the assay temperature for 10 min. The plate was measured every 20 minutes for typically 45 hours. Between each measurement, the plate was shaken and heated as described above.
The measurement data points were saved in Microsoft Excel format for further processing and curve drawing and fitting was performed using Graph Pad Prism. […] The data points are typically a mean of four samples. Only data obtained in the same experiment (i.e. samples on the same plate) are presented in the same graph ensuring a relative measure of fibrillation between the individual samples of one assay rather then comparison between different assays. The data set may be fitted to Eq. (1). However since the full sigmoidal curves are not usually achieved during the measurement time, the degree of fibrillation is expressed as ThT fluorescence at various time points calculated as the mean of the four samples and shown with the standard deviation

[4] = Hydrophobicity by isocratic reverse phase HPLC; assay type: physicochemical; conditions: k'rel, isocratic RP-HPLC, pH 7.3, human insulin = 1
Procedure: The hydrophobicity of an N-terminally modified insulin is found by reverse phase HPLC run under isocratic conditions. […] The hydrophobicity, k′rel, is calculated as: k′relderiv=((tderiv−t0)(tref−t0)*k′relref. Using HI as reference: k′relref=k′relHI=1. The void time of the HPLC system, t0, is determined by injecting 5 μl of 0.1 mM NaNO3. Running conditions:
Column: Lichrosorb RP-C18, 5 μm, 4×250 mm
Buffer A: 0.1 M natrium phosphate pH 7.3, 10 vol % CH3CN
After running an initial gradient, the isocratic level for running the derivative and reference (for example HI) is chosen, and the elution times of the derivative and reference under isocratic conditions are used in the above equation to calculate k′relderiv.

[5] = Chemical stability of insulin derivatives in 2 mM phosphate (SEC-HPLC and RP-HPLC); assay type: physicochemical; conditions: 4 weeks 37° C. minus 5° C. start sample; for HMWP Formation (%) (4 weeks 37° C.- 0 weeks 5° C.): pH 7.5, SEC-HPLC
Procedure: Chemical stability of an insulin derivative is assessed after incubating insulin derivative in 2 mM phosphate, pH=7.5 at 37° C. for up to 8 weeks. Formation of high molecular weight products (HMWP) is determined by SEC HPLC analysis after 0, 2, 4 and optionally 8 weeks. The results of the SEC method are given as a difference between HMWP formation at 37° C. and 5° C. start sample as a percentage of total absorbance at 215 nm. Chemical degradation products are determined by RP HPLC analysis after 0, 2, 4 and optionally 8 weeks. The results of the RP method are given as a difference between chemical degradation observed at 37° C. and 5° C. start sample as a percentage of total absorbance at 215 nm.
• Solvent: 500 mM NaCl, 10 mM NaH2PO4, 5 mM H3PO4, 50% (v/v) 2-propanol • Flow: 0.5 ml/min • Run time: 30 min • UV Detection: 215 nm • Column: Insulin HMWP column from Waters 7.8×300 mm • Temperature: 50° C.
• Solvent A: 0.09M phosphate buffer pH 3.6 (di-ammoniumhydrogenphosphate), 10% MeCN (v/v) • Solvent B: 80% MeCN (v/v %) • Flow: 0.3 ml/min • Runtime: 33 min • UV Detection: 215 nm • Column: Waters Acquity BEH130 C18 Column 1.7 μm, 150×2.1 mm • Temperature: 50° C. • Gradient: […]

Primary rat adipocytes = experiment: Lipogenesis in rat adipocytes; assay type: cell-based; conditions: relative potency vs human insulin
Excerpt: As a measure of in vitro potency of the insulins of the invention, lipogenesis can be used.
The labelled glucose is converted into extractable lipids in a dose dependent way, resulting in full dose response curves.

In the case of “I: {Phe(Nα-CONH2)}-VCQHLCGSHLVEALYLVCGERGFHYPK([γGlu-C18 diacid]) / II: Hydantoyl-IVEQCCTSCCSLEQLENYCN (disulfide I:2-II:9, I:6-II:6, I:18-II:19, II:5-II:10) [Example 34, A1(N^αCarbamoyl), A10C, A14E, B1(N^αcarbamoyl), B3C, B25H, desB27, B29K(N^εoctadecanedioyl-gGlu), desB30 Human Insulin]”, the “Relative IR-A affinity (@ […] HSA) (%)e” value (human insulin receptor [1]) is reported as 0.00%, the “Relative IR-A affinity (@ 0% HSA) (%)” value (human insulin receptor [2]) is reported as 0.1% and the “Stability towards duodenum lumen enzymes (fold relative to A14E, B25H, desB30 human insulin)” value (duodenum lumen enzymes) is reported as 1.8 fold. The “ThT 0 h” value [3] was 20 ± 0.1, the “ThT 5 h” value [3] was 13 ± 0.7 and the “ThT 10 h” value [3] was 13 ± 0.8. For the same substance, the “ThT 30 h” value [3] was 13 ± 0.4 and the “ThT 40 h” value [3] was 13 ± 0.3.

For “I: NMe2Phe-VCQHLCGSHLVEALYLVCGERGFHYPK([AEEA-AEEA-γGlu-C18 diacid]) / II: Me2Gly-IVEQCCTSCCSLEQLENYCN (disulfide I:2-II:9, I:6-II:6, I:18-II:19, II:5-II:10) [Example 11, A1(N^α,N^α-Dimethyl), A10C, A14E, B1(N^α,N^α-dimethyl), B3C, B25H, desB27, B29K(N^εoctadecanedioyl-gGlu-2×OEG), desB30 Human Insulin]”, the “Relative IR-A affinity (@ […] HSA) (%)e” value (human insulin receptor [1]) was 0.04%, the “Hydrophobicity rel. to human insulin” value [4] was 0.095 and the “Relative IR-A affinity (@ 0% HSA) (%)” value (human insulin receptor [2]) was 0.6%. The “Chemical degradation (%) (4 weeks 37° C.- 0 weeks 5° C.)” value ([5]; pH 7.5, RP-HPLC) was 3.2%, the “HMWP Formation (%) (4 weeks 37° C.- 0 weeks 5° C.)” value [5] was −0.2% and the “ThT 0 h” value [3] was 31 ± 0.4. The “ThT 5 h” value [3] was 23 ± 0.4, the “ThT 10 h” value [3] was 23 ± 0.6 and the “ThT 30 h” value [3] was 21 ± 0.2. For the same substance, the “ThT 40 h” value [3] was 21 ± 0.3.

In the case of “I: {Phe(Nα-CONH2)}-VCQHLCGSHLVEALYLVCGERGFFYPK([AEEA-AEEA-γGlu-C18 diacid]) / II: Hydantoyl-IVEQCCTSCCSLEQLENYCN (disulfide I:2-II:9, I:6-II:6, I:18-II:19, II:5-II:10) [Example 33, A1(N^α-Carbamoyl), A10C, A14E, B1(N^α-carbamoyl), B3C, desB27, B29K(N^εoctadecanedioyl-gGlu-2×OEG), desB30 Human Insulin]”, the “Relative IR-A affinity (@ 0% HSA) (%)” value (human insulin receptor [2]) is reported as 0.6% and the “Stability towards duodenum lumen enzymes (fold relative to A14E, B25H, desB30 human insulin)” value (duodenum lumen enzymes) is reported as 1.6 fold.

For “I: NMe2Phe-VCQHLCGSHLVEALYLVCGERGFHYTPK([AEEA-AEEA-γGlu-C20 diacid]) / II: Me2Gly-IVEQCCTSCCSLEQLENYCN (disulfide I:2-II:9, I:6-II:6, I:18-II:19, II:5-II:10) [Example 2, A1(N^α,N^α-Dimethyl), A10C, A14E, B1(N^α,N^α-dimethyl), B3C, B25H, B29K(N^εeicosanedioyl-gGlu-2×OEG), desB30 Human Insulin]”, the “Hydrophobicity rel. to human insulin” value [4] was 0.38, the “Lipogenesis in rat adipocytres (@ 0.1% HSA) rel. to human insulin (%)” value (Primary rat adipocytes) was 0.025% and the “HMWP Formation (%) (4 weeks 37° C.- 0 weeks 5° C.)” value [5] was 0.0%. The “ThT 0 h” value [3] was 35 ± 0.9, the “ThT 5 h” value [3] was 22 ± 0.4 and the “ThT 10 h” value [3] was 22 ± 0.3. The “ThT 30 h” value [3] was 20 ± 0.3 and the “ThT 40 h” value [3] was 19 ± 0.3.

For “I: {Phe(Nα-CONH2)}-VCQHLCGSHLVEALYLVCGERGFHYPK([AEEA-AEEA-γGlu-C20 diacid]) / II: Hydantoyl-IVEQCCTSCCSLEQLENYCN (disulfide I:2-II:9, I:6-II:6, I:18-II:19, II:5-II:10) [Example 46, A1(N^α-Carbamoyl), A10C, A14E, B1(N^α-carbamoyl), B3C, B25H, desB27, B29K(N^εeicosanedioyl-gGlu-2×OEG), desB30 Human Insulin]”, the “Relative IR-A affinity (@ […] HSA) (%)e” value (human insulin receptor [1]) was 0.01%, the “Hydrophobicity rel. to human insulin” value [4] was 0.132 and the “Relative IR-A affinity (@ 0% HSA) (%)” value (human insulin receptor [2]) was 0.1%. The “Stability towards duodenum lumen enzymes (fold relative to A14E, B25H, desB30 human insulin)” value (duodenum lumen enzymes) was 1.2 fold.

In the case of “I: NMe2Phe-VCQHLCGSHLVEALHLVCGERGFHYTPK([AEEA-AEEA-γGlu-C20 diacid]) / II: Me2Gly-IVEQCCTSCCSLEQLENYCN (disulfide I:2-II:9, I:6-II:6, I:18-II:19, II:5-II:10) [Example 28, A1(N^α,N^α-Dimethyl), A10C, A14E, B1(N^α,N^α-dimethyl), B3C, B16H, B25H, B29K(N^εeicosanedioyl-gGlu-2×OEG), desB30 Human Insulin]”, the “Relative IR-A affinity (@ […] HSA) (%)e” value (human insulin receptor [1]) is reported as 0.01%, the “Hydrophobicity rel. to human insulin” value [4] is reported as 0.298 and the “Relative IR-A affinity (@ 0% HSA) (%)” value (human insulin receptor [2]) is reported as 0.1%. The “Stability towards duodenum lumen enzymes (fold relative to A14E, B25H, desB30 human insulin)” value (duodenum lumen enzymes) was 1.6 fold.
